Biological target: DNA polymerase beta (pol beta), [13CH3-Met,13CH3-Ile] labelled (UniProt P06746 1-335)
Assay: NMR 1H-13C HMQC chemical shift perturbation, methyl-TROSY CPMG; binary complex; 5 mM MgCl2; ~175 uM pol beta, 10% excess DNA; D2O buffer: 50 mM Tris-d11 pH 7.6, 150 mM KCl, 5 mM MgCl2 (none for apoenzyme), 1 mM CDTA, 1 mM DTT, 0.1 mM AEBSF, 0.04% NaN3, 50 uM DSS; 35 C for assignment of

## GGCGAAGCCTGGTGCGAAGCACC (structured_DNA) [1-nt-gapped double hairpin DNA (templating dT in gap)]
  binding result: binds
